The record followed here is patent US20060052582A1 (published 2006).

In the assay the target is Ran G19V (UniProt P62826 1-216). The assay is described as follows: co-expression and co-immunoprecipitation. The text has this:
To address more directly the relative binding in vivo of Nercc to Ran-GDP compared to Ran-GTP, the cytoplasmic wild type Nercc and a nuclear form of full length Nercc (NLS-Nercc) were each co-expressed with wild type Ran or Ran mutants that bind GDP (T24N) or GTP (G19V) exclusively; either Ran or Nercc was immunoprecipitated and probed for the association with the other polypeptide. The full-length wild type Nercc bound co-expressed wild type Ran and Ran T24N to a greater extent than RanG19V.

B1: NLS Nercc FL (nuclear form of full length Nercc with an NLS peptide at the N-terminus) (enzyme)
chain: MSVLGEYERHCDSINSDFGSESGGCGDSSPGPSASQGPRAGGGAAEQEELHYIPIRVLGRGAFGEATLYRRTEDDSLVVWKEVDLTRLSEKERRDALNEIVILALLQHDNIIAYYNHFMDNTTLLIELEYCNGGNLYDKILRQKDKLFEEEMVVWYLFQIVSAVSCIHKAGILHRDIKTLNIFLTKANLIKLGDYGLAKKLNSEYSMAETLVGTPYYMSPELCQGVKYNFKSDIWAVGCVIFELLTLKRTFDATNPLNLCVKIVQGIRAMEVDSSQYSLELIQMVHSCLDQDPEQRPTADELLDRPLLRKRRREMEEKVTLLNAPTKRPRSSTVTEAPIAVVTSRTSEVYIWGGGKSTPQKLDVIKSGCSARQVCAGNTHFAVVTVEKELYTWVNMQGGTKLHGQLGHGDKASYRQPKHVEKLQGKAIHQVSCGDDFTVCVTDEGQLYAFGSDYYGCMGVDKVAGPEVLEPMQLNFFLSNPVEQVSCGDNHVVVLTRNKEVYSWGCGEYGRLGLDSEEDYYTPQKVDVPKALIIVAVQCGCDGTFLLTQSGKVLACGLNEFNKLGLNQCMSGIINHEAYHEVPYTTSFTLAKQLSFYKIRTIAPGKTHTAAIDERGRLLTFGCNKCGQLGVGNYKKRLGINLLGGPLGGKQVIRVSCGDEFTIAATDDNHIFAWGNGGNGRLAMTPTERPHGSDICTSWPRPIFGSLHHVPDLSCRGWHTILIVEKVLNSKTIRSNSSGLSIGTVFQSSSPGGGGGGGGGEEEDSQQESETPDPSGGFRGTMEADRGMEGLISPTEAMGNSNGASSSCPGWLRKELENAEFIPMPDSPSPLSAAFSESEKDTLPYEELQGLKVASEAPLEHKPQVEASSPRLNPAVTCAGKGTPLTPPACACSSLQVEVERLQGLVLKCLAEQQKLQQENLQIFTQLQKLNKKLEGGQQVGMHSKGTQTAKEEMEMDPKPDLDSDSGCLLGTDSCRPSL
notes: Probably FLAG-tagged like the other constructs; not shown: NLS peptide (a copy of the Nercc NLS)
Turning to B1, the binding result is recorded as “no binding”.
